Results on four substances are retold here after paper PMC4298044.

For assay [1], the target named is soluble full-length APP (sAPPf) (human (endogenous in CSF)) (UniProt P05067). The assay is described as follows: co-IP + ELISA; CSF of AD and NDC subjects measured by sandwich ELISA (IBL sAPPα, IBL sAPPβ, or Novex kit that detects sAPPf and sAPPα) before and after immunoprecipitation with Sigma-Ct or IBL-β; read-out is the loss from the sample. Background: An ELISA detects its analyte on a solid surface through an enzyme-linked reagent.

Assay [2] has as its target sAPPβ (sAPP fragment generated after β-secretase cleavage) (human (endogenous in CSF)). Described as above.
The target in assay [3] is APP solubilized from human brain membranes (human (endogenous in brain frontal cortex)) (UniProt P05067). Kind of assay: native gel or EMSA; blue native-PAGE, NativePAGE Novex 4-16% Bis-Tris gels, samples with G-250 additive and dodecylmaltoside; brain membrane extracts and CSF; immunoblot with anti-APP antibodies. In general terms: A gel shift assay detects complexes by their altered migration in electrophoresis.

The target is the same in assay [4]. The assay is described as follows: sucrose density gradient ultracentrifugation; continuous 5-20% sucrose gradient, 0.15 M NaCl, 50 mM MgCl2, 0.5% Brij 97, 50 mM Tris-HCl pH 7.4; 250,000 x g, 4 hr, 4°C; fractions immunoblotted; markers β-galactosidase, catalase, alkaline phosphatase. (In western blotting, separated proteins are transferred to a membrane and probed.)

Turning to “sAPPβ (sAPP fragment generated after β-secretase cleavage) (domain or fragment)”, in assay [1], the percent decrease of the ELISA level after immunoprecipitation of sAPPf (Sigma-Ct) was found to be 27%.
The same measure, in the same setting: for “sAPPα (sAPP fragment generated after α-secretase cleavage) (domain or fragment)” the value was 33%.
For the substance “soluble full-length APP (sAPPf) (from UniProt P05067 18-770) (natural protein)”, in assay [2], the percent decrease of the ELISA level of sAPPf plus sAPPα after immunoprecipitation of sAPPβ (IBL-β) stood at 89%.
For “APP solubilized from human brain membranes (from UniProt P05067 18-770) (natural protein)”, the stoichiometry N in assay [3] and in assay [4] was 2 in each case.

The stoichiometry N is the number of molecules, sites or subunits per partner or assembly.
